Patent US20080131510

Assays:
[1] = target: T1, Lys*-Gly-Leu-Cys (SEQ ID NO:33); assay: peptide cleavage kinetics by HPLC, 10 nM activated MMP; the filing calls Km 'affinity or binding strength'
T1 chain: KGLC

[2] = target: T2, Lys*-Pro-Ala-Gly-Leu-Leu-Gly-Cys (SEQ ID NO:2); assay: as above
T2 chain: KPAGLLGC

[3] = target: T3, Lys*-Ala-Gly-Leu-Leu-Cys (SEQ ID NO:32); assay: as above
T3 chain: KAGLLC

[4] = target: T1, Lys*-Gly-Leu-Cys (SEQ ID NO:33)
[5] = target: T2, Lys*-Pro-Ala-Gly-Leu-Leu-Gly-Cys (SEQ …)
[6] = target: T3, Lys*-Ala-Gly-Leu-Leu-Cys (SEQ ID NO:32)
[7] = target: T4, Lys*-Pro-Ala-Gly-Leu-Leu-Gly-Cys (SEQ ID NO:2), pendant in PEG(8000)DA hydrogel and complexed with Pt (not fully specified)
T4 chain: KPAGLLGC

B1: matrix metalloprotease-2 (MMP-2), activated (protein)
chain: YNFFPRKPKWDKNQITYRIIGYTPDLDPETVDDAFARAFQVWSDVTPLRFSRIHDGEADIMINFGRWEHGDGYPFDGKDGLLAHAFAPGTGVGGDSHFDDDELWTLGEGQVVRVKYGNADGEYCKFPFLFNGKEYNSCTDTGRSDGFLWCSTTYNFEKDGKYGFCPHEALFTMGGNAEGQPCKFPFRFQGTSYDSCTTEGRTDGYRWCGTTEDYDRDKKYGFCPETAMSTVGGNSEGAPCVFPFTFLGNKYESCTSAGRSDGKMWCATTANYDDDRKWGFCPDQGYSLFLVAAHEFGHAMGLEHSQDPGALMAPIYTYTKNFRLSQDDIKGIQELYGASPDIDLGTGPTPTLGPVTPEICKQDIVFDGIAQIRGEIFFFKDRFIWRTVTPRDKPMGPLLVATFWPELPEKIDAVYEAPQEEKAVFFAGNEYWIYSASTLERGYPKPLTSLGLPPDVQRVDAAFNWSKNKKTYIFAGDKFWRYNEVKKKMDPGFPKLIADAWNAIPDNLDAVVDLQGGGHSYFFKGAYYLKLENQSLKSVKFGSIKSDWLGC
- Km [1]: 81 µM
- Km [2]: 1000 µM
- Km [3]: 1400 µM
- Kcat/Km [4]: 439 M⁻¹ s⁻¹
- Vmax [4]: 8.8e-10 M/s
- kcat [4]: 0.035 s⁻¹
- Kcat/Km [5]: 10700 M⁻¹ s⁻¹
- Vmax [5]: 2.7e-07 M/s
- kcat [5]: 10.7 s⁻¹
- Kcat/Km [6]: 171 M⁻¹ s⁻¹
- Vmax [6]: 6.02e-09 M/s
- kcat [6]: 0.24 s⁻¹
- release of cleaved fragment from the PEG(8000)DA hydrogels [7]: the addition of MMP-2 and MMP-9 showed a significantly higher release of cleaved fragment from the PEG(8000)DA hydrogels compared to the control
